The source of these data is patent US10800847.

Test [1] has as its target Albumin (negative control beads) (human or bovine). Description: Luminex, iBeads (#6), 1:4.
For test [2], the target named is HLA-Cw*0202 (Cw2) (human). Kind of test: Luminex, iBeads (#6), 1:4.
In test [3] the target is HLA-Cw*0303 (Cw9) (human). Description: Luminex, iBeads (#6), 1:4.
Test [4] deals with HLA-Cw*0304 (Cw10) (human). Kind of test: Luminex, iBeads (#6), 1:4.
Test [5] concerns the target HLA-Cw*0401 (Cw4) (human). Kind of test: Luminex, iBeads (#6), 1:4.
Test [6] addresses HLA-Cw*0501 (Cw5) (human). Kind of test: Luminex, iBeads (#6), 1:4.
Test [7] deals with HLA-Cw*1203 (Cw12) (human). Description: Luminex, iBeads (#6), 1:4.
Test [8] concerns the target HLA-Cw*1502 (Cw15) (human). Kind of test: Luminex, iBeads (#6), 1:4.
Test [9] deals with Albumin on negative control beads (serum albumin, HSA/BSA) (human or bovine). Description: Luminex single antigen beads, iBeads (#6), 1:8.
The target of test [10] is HLA-A*0301 (A3) on single antigen beads (human) (UniProt P04439). Description: Luminex single antigen beads, iBeads (#6), 1:8.

Consider “IVIg Sandoglobulin (Novartis, Basel, Switzerland) (antibody)”, for which the MFI in test [1] was 667 MFI; in test [2] it was 719 MFI; in test [3] it was 500 MFI; in test [4] it was 520 MFI; in test [5], 601 MFI; in test [6], 710 MFI. Besides, the MFI in test [7] turned out to be 636 MFI; in test [8], 458 MFI.
With “Octagam (IVIg, Octapharma, Lachen, Switzerland) (antibody)”, the results for the MFI in test [9] and in test [10] were 1670 MFI and 0 MFI, respectively.
